In US20240270871A1 (HUMMINGBIRD BIOSCIENCE PTE, published 2024):
Read-outs that look alike come from different tables or passages of the source.

Assays:
Experiment in all cases: BLI (Octet QK384), IgG captured on anti-human Fc (AHC) biosensors, recombinant human HER3 as analyte, 1:1 global fit, averaged
recombinant human HER3 [1] = molecular target: T1, recombinant human HER3 (human, UniProt P21860 20-643, limits assumed)
Protocol: (§1) Biosensors were first dipped in wells containing assay buffer for 60 s to obtain baseline readings, and then IgGs (at a concentration of 12.5 nM) were captured for 120 s, followed by PBST wash for 60 s to remove any unbound antibody or non-specifically-bound protein and the second baseline was collected after IgG capture. Kinetic measurements for antigen binding were performed by dipping each of the antibody-coated biosensors into wells containing a single serial diluted concentration of recombinant human HER3 for 120 s, followed by a 120 s dissociation time by transferring the biosensors into assay buffer containing wells. AHC biosensors were regenerated for 5 s×4 times after each kinetic cycle using 10 mM glycine pH 1.7 to remove bound protein and washed with assay buffer before a new kinetic cycle. Six 1:2 serial dilutions of recombinant human HER3 (at concentrations ranging from 500 nM to 16 nM), were used to ensure an ideal concentration range of antigen, and binding signal spanning the dynamic range of the assay. Measurements for all sensors were generated in real time in parallel. Data analysis was preformed using Octet QK384 analysis 9.0 software (Pall ForteBio) according to manufacturer's recommendations for analysing a high-affinity antigen-antibody kinetics. […]

recombinant human HER3 [2] = molecular target: T1, recombinant human HER3; remark: listed apart in the source
Protocol: as §1

recombinant human HER3 [3] = molecular target: T1, recombinant human HER3; remark: listed apart in the source
Protocol: as §1

recombinant human HER3 [4] = molecular target: T1, recombinant human HER3; remark: listed apart in the source
Protocol: as §1

recombinant human HER3 [5] = molecular target: T1, recombinant human HER3; remark: listed apart in the source
Protocol: as §1

recombinant human HER3 [6] = molecular target: T1, recombinant human HER3; remark: listed apart in the source
Protocol: as §1

recombinant human HER3 [7] = molecular target: T1, recombinant human HER3; remark: listed apart in the source
Protocol: as §1

T1 sequence (P21860 20-643 limits assumed): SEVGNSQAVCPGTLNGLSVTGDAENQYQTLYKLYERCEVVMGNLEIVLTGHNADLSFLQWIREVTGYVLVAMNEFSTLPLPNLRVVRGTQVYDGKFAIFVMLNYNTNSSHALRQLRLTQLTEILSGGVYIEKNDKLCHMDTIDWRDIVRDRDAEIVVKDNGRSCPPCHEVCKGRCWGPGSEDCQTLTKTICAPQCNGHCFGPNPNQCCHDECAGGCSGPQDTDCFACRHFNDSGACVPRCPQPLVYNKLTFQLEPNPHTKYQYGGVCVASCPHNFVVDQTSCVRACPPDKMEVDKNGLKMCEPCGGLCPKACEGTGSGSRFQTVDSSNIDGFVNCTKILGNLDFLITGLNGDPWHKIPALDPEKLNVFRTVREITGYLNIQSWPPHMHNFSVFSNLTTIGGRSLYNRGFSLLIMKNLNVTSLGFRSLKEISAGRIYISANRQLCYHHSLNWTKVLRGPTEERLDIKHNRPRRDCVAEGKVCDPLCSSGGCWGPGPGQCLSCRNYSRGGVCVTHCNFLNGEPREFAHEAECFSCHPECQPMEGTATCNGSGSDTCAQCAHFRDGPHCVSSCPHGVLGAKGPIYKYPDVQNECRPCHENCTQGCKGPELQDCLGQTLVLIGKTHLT

Kd (recombinant human HER3 [1]): < 1 pM
Kd (recombinant human HER3 [2]): < 1 pM
Kd (recombinant human HER3 [3]): < 1 pM
Kd (recombinant human HER3 [4]): < 1 pM
Kd (recombinant human HER3 [5]): < 1 pM
Kd (recombinant human HER3 [6]): < 1 pM
Kd (recombinant human HER3 [7]): < 1 pM
B1: 10D1F hIgG1 (antibody, V domains shown)
VH: QVQLQESGPGLVKPSQTLSLTCTVSGYSITSGYSWHWIRQHPGKGLEWIGSIRYSGGTDYNPSLKSLVTISADTSKNQFSLKLSSVTAADTAVYYCARMTTAPWYPFDYWGQGTTVTVSS
VL: DIQMTQSPSSVSASVGDRVTITCKASQIVGSNVAWYQQKPGKAPEPLIYSASYLYSGVPSRFSGSGSGTDFTLTISSLQPEDFATYYCQQYSSHPLTFGQGTKLEIKR
notes: also called 10D1F.A; antibody product of clones 2-1.1, 2-1.2, 2-1.3, 2-1.4, 2-3.12, 2-3.13, 2-3.15
